Patent US10143747B2, “Breast cancer therapeutics” (IMBA—INSTITUT FÜR MOLEKULARE BIOTECHNOLOGIE GMBH, priority 2010, dated 2018)

How the values were obtained:
[1] = test system: human SKBR3 breast cancer cells; assay: Western blotting of RANKL-stimulated SKBR3 cells; format: cell-based; settings: RANKL 1 μg/ml
Procedure: a, Western blotting for phosphorylated (P) p65 NFκB, total p65 NFκB, phosphorylated (P) IκBα, total IκBα, phosphorylated (P) ERK1/2, total ERK1/2, phosphorylated (P) p38-MAPK, and p38-MAPK in human SKBR3 breast cancer cells in response to RANKL stimulation (1 μg/ml). Data are representative of 3 experiments. b, Growth curve of SKBR3 breast cancer cells cultured in normal growth medium (control, DMEM supplemented with 10% FCS) or in the presence of RANKL (1 μg/ml). Cell numbers were determined by counting live cells (trypan blue-exclusion) over 3 days. c, Onset of palpable mammary tumors in NFATc1^Δmam (n=10) and age matched littermate control (n=16) females treated with MPA pellets and DMBA. Data are shown as percentage of tumor free mice after the last DMBA challenge. No significant difference was found. d, Quantification of NFATc1 mRNA expression in purified mammary epithelial cells (MECs) and MPA-driven mammary tumors from NFATc1^Δmam and littermate control females. mRNA was determined by qRT-PCR. Data are shown as fold change compared to control (+/−sem). n=5 Per group. *P<0.05 (Student's t-test).
The human epithelial breast tumor cell line SKBR3 and primary non-transformed mouse mammary epithelial cells were left untreated or stimulated with recombinant murine RANKL^ref. 9. Adenocarcinomas were isolated from control and mutant mice and total protein lysates prepared. […]

[2] = test system: primary mouse mammary epithelial cells; assay: DNA damage responses (cell cycle arrest, apoptosis) in primary mouse mammary epithelial cells; format: cell-based; settings: RANKL 1 μg/ml
Procedure: a, Western Blot analysis for γH2AX, phosphorylated (P) Chk1, total Chk1, p53 and β-actin in isolated primary mouse mammary gland epithelial cells in response to γ-irradiation (2 Gray) in the presence (1 μg/ml) or absence of RANKL stimulation. b,c, FACS analysis of propidium iodide (PI) stained b, mammary epithelial cells and c, SKBR3 human breast cancer cells after γ-irradiation (2 Gray) in the absence or presence (1 μg/ml) of RANKL. Data are representative of at least 3 experiments. Apoptotic cells with a DNA content <2n appear in the sub-G1 region. Percent of cells in sub-G1 (M1), G1-phase (M2), S/G2/M-phase (M3) as well as polyploid cells with a DNA content >4n are given for the indicated time points.
a,b, FACS analysis of a, mammary epithelial cells and b, SKBR3 human breast cancer cells incubated with the genotoxic agent doxorubicin (Dox, 1 μM) in the presence (1 μg/ml) or absence of RANKL. Data are representative of at least 3 experiments. Percent of cells in sub-G1 (M1), G1-phase (M2), S/G2/M-phase (M3) as well as polyploid cells with a DNA content >4n are given for 24 and 36 hours after doxorubicin treatment. c, mRNA expression of pro-apoptotic genes Bim, Puma, and Noxa 6 hours after γ-irradiation (2 Gray) in the presence (1 μg/ml) or absence of RANKL stimulation. Data are shown as fold change compared to control (+/−sem). n=3). *P<0.05; **P<0.005 (Student's t-test).
For measurement of cell cycle arrest and apoptosis primary mouse mammary epithelial cells and SKBR3 human breast cancer cells were seeded at a cell-density of 100000 cells/well in a 6-well plate and allowed to grow for 24 hours. Cells where then treated with doxorubicin (1 μM) or γ-irradiation (2 Gray) in the absence or presence of recombinant RANKL (1 μg/ml). Cell cycle arrest and numbers of dead cells were determined using propidium iodine staining. To determine in vivo mammary gland epithelial cell death, control and RANK^Δmam littermate females were γ-irradiated with a total dose of 5 Gray (Gy). Six hours later, mammary glands were isolated and immunostained for active Caspase 3 (Cell Signaling) indicative of apoptosis.

B1: RANKL: recombinant RANKL protein, ligand of RANK, used as stimulus (1 μg/ml or 1 μg i.p.) (protein, UniProt O35235 139-316, looked up)
Tumor necrosis factor ligand …: FSGAPAMMEGSWLDVAQRGKPEAQPFAHLTINAASIPSGSHKVTLSSWYHDRGWAKISNMTLSNGKLRVNQDGFYYLYANICFRHHETSGSVPTDYLQLMVYVVKTSIKIPSSHNLMKGGSTKNWSGNSEFHFYSINVGGFFKLRAGEEISIQVSNPSLLDPDQDATYFGAFKVQDID
- NFκB, p38-MAPKs and ERK activation [1]: induced NFκB, p38-MAPKs and ERK activation
- γ-irradiation-induced upregulation of proapoptotic Bim, Puma and Noxa mRNA ([2]; 6 hours after γ-irradiation 2 Gray, cell type not stated): did not occur in the presence of RANKL
- early cell cycle arrest after DNA damage ([2]; doxorubicin 1 μM): did not alter the early cell cycle arrest
- protection from cell death ([2]; doxorubicin 1 μM): marked protection from cell death
- early cell cycle arrest after DNA damage ([2]; γ-irradiation 2 Gray): did not alter the early cell cycle arrest
- induction of γH2AX and p53, activation of Chk1 (DNA damage response markers) ([2]; γ-irradiation 2 Gray): did not alter induction of γH2AX and p53 or activation of Chk1
- protection from cell death ([2]; γ-irradiation 2 Gray): marked protection from cell death
